# Measured values from US20260027179A1, “ANTI-SYNUCLEINOPATHY PEPTIDE AND METHODS TO TREAT NEURODEGENERATIVE DISEASES” (University of British Columbia, priority 2021, published 2026).
# Key:
# 14-3-3 = 14-3-3 level in cortical cultures, immunoblot; type: cell-based, rat; settings: 50 μM, 24 hrs
# Protocol: Primary rat neuron cultures were prepared from embryos of pregnant Sprague-Dawley rats (E18). The experimental protocol was approved by the University of British Columbia Animal Care Committee. Briefly, the cortical tissue or ventral midbrain tissue was isolated into ice cold HBSS (Invitrogen, 14170-112) and then digested with 0.25% trypsin-EDTA at 37° C. for 30 min. After washing with warm DMEM (supplemented with 10% FBS) three times, neurons were suspended in neuron culture media and dissociated by trituration using varying sizes of pipettes. Neurons were then centrifuged, and the pellet was re-suspended in culture media, washed twice with culture media, and plated on the poly-D-lysine-coated plates. Neuron culture was maintained in the 37° C. incubator with 95% O2 and 5% CO2. The morning after culturing, 2/3 of the neuron culture media was replaced with fresh neuron culture media. Media was then replaced every 3-4 days. […]
# (§1) Brain tissues or cultured cells were lysed on ice in the lysis buffer and then the solution was centrifuged at 14,000 rpm for 10 min at 4° C. Next, the supernatant was collected and protein concentrations were determined using a BCA protein assay kit (Thermo Scientific, 23227). […] The band density of each protein was quantified by the Bio-Rad Quantity One software and the relative optical density was analyzed relative to the loading control β-actin on the same membrane.
# α-synuclein = molecular target: T1, α-synuclein (Mus musculus, UniProt O55042); assay: MPTP mouse model, α-synuclein immunoblotting of brain tissue; type: in vivo; settings: MPTP mice, 6 μmol/kg i.p. twice a day for 12 days, immunoblot
# T1 construct: tissue Charles River; host or cells: ventral midbrain and striatum of C57BL/6 mice
# Protocol: C57BL/6 mice were i.p. injected with 30 mg/kg parkinsonian toxin MPTP (or saline as control), once per day for 5 consecutive days, to induce dopaminergic neuron damage. The effects of MPTP administration on mouse rotarod performance and damage to dopaminergic neurons were then analyzed 1 week after the last injection of MPTP. To determine the effect of α-synuclein knockdown in protecting dopaminergic neurons against MPTP, the Tat-βsyn-degron peptide or its control Tat-βsyn (6 μmol/kg; i.p.) was used in some animals twice a day for 12 days, beginning the first day of MPTP injection. […] The striatum is a region that receives dopaminergic neuronal projections from the substantia nigra and is also deeply affected in PD. […]
# as §1
# C57BL/6 mice = assay: MPTP mouse model, rotarod test; type: in vivo; settings: peptide 6 μmol/kg i.p. twice a day for 12 days, vs MPTP group
# Protocol: C57BL/6 mice (20-25 g) received intraperitoneal (i.p.) injection of 30 mg/kg parkinsonian toxin MPTP hydrochloride once a day for 5 days to induce dopaminergic neuron death in the substantia nigra, while the control mice received equal volumes of saline injection. 6 μmol/kg Tat-βsyn-degron peptide or control Tat-βsyn peptide was i.p. injected into the MPTP-treated mice every 12 hrs from the first day of MPTP injection until 7 days after the last injection of MPTP. All groups of mice then underwent a rotarod test before they were sacrificed.
# The rotarod test was performed as previously described (Heldermon, C. D. et al., PloS one 2, e772, doi:10.1371/journal.pone.0000772 (2007)), with modifications. Briefly, 6 days after the last MPTP injection, all mice received 4 rounds of training on the rotarod (Stoelting Co.). In the first two rounds of training, the rotarod was maintained at constant speed of 20 rpm for 3 min. In the second two rounds of training, the rotarod reversed rotation direction every 3 turns at the constant speed of 20 rpm for 3 min. […] Mice were tested 10 times at 20 min intervals, and the time that they remained on the rotarod during each test was recorded. […] The motor performance of the mouse was expressed as the latency to fall off the rotarod.
# endogenous α-synuclein = molecular target: T2, endogenous α-synuclein (Mus musculus, UniProt O55042); assay: α-synuclein expression in peripheral and brain tissues after peptide injection; type: in vivo; settings: 6 μmol/kg, i.p., 6 hours after peptide injection
# T2 construct: from tissue; host or cells: kidney, spleen, ventral midbrain, striatum
sequence,measurement,setting,value
YGRKKRRQRRRRTKSGVYLVGRRRG (The sequence is synthesized (YGRKKRRQRRRRTKSGVYLVGRRRG)) [Tat-βsyn-degron],expression level of 14-3-3,14-3-3,did not affect the expression levels
same,α-synuclein in striatum,α-synuclein,induced significant α-synuclein degradation
same,α-synuclein in substantia nigra-containing ventral midbrain,α-synuclein,induced significant α-synuclein degradation
same,MPTP-induced motor deficits (latency to fall off the rotarod),C57BL/6 mice,significantly reduced
same,α-synuclein expression in the kidney,endogenous α-synuclein,significantly reduce the α-synuclein expression
same,α-synuclein expression in the spleen,endogenous α-synuclein,significantly reduce the α-synuclein expression
same,α-synuclein expression in the striatum,endogenous α-synuclein,significantly reduce the α-synuclein expression
same,α-synuclein expression in the ventral midbrain,endogenous α-synuclein,significantly reduce the α-synuclein expression
